Results published in publication PMC9080080 (Cell Reports, 2022).

Target: SARS-CoV S2P protein (SARS-CoV, strain  (reference …, UniProt P59594, stabilised))
Experiment: SPR

B1: XMA09 (antibody, V domains shown)
VH: QVQLVQSGAEVKKPGSSVKVSCKASGGTFSSFAISWVRQAPGQGLEWMGGIIPIYGTANYAQKFQGRVTITADESTSTAYMDLSSLRSEDTAVYYCARDGSSTYYPHNWFDPWGQGTLVTVSS
VL: QSVLTQPPSVSGAPGQRVTISCTGSSSNIGSGYDVHWYQQLPGTAPKLLIYGNSNRPSGVPDRFSGSKSGTSASLAITGLQAEDEADYYCQSYDSSLSGVFGTGTKVTVL
B1: binds.
